Several values for one entry are separate records, joined by “and”; a condition that tells them apart may be missing. Equal values may be shown once. Read-outs that look alike come from different tables or passages of the source. Blank lines part the entries; values can stand above or below the compound they belong to.
Tests used:
[1] = Osmolarity of saline and commercial formulations (Table 1B, calculations); format: physicochemical; details: Summary of Calculations
Text: The formulation of therapeutic agent injected into therapeutic device 100 may comprise many known formulations of therapeutic agents, and the formulation therapeutic agent comprises an osmolarity suitable for release for an extended time from device 100.
The vitreous humor of the eye comprises an osmolarity of about 290 mOsm to about 320 mOsm. Formulations of therapeutic agent having an osmolarity from about 280 mOsm to about 340 mOsm are substantially isotonic and substantially iso-osmotic with respect to the vitreous humor of the eye. Although the formulations listed in Table 1B are substantially iso-osmotic and isotonic with respect to the vitreous of the eye and suitable for injection into the therapeutic device, the formulation of the therapeutic agent injected into the therapeutic device can be hypertonic (hyper-osmotic) or hypotonic (hypo-osmotic) with respect to the tonicity and osmolarity of the vitreous. […]

[2] = Measured release of Avastin through porous frit structures, Examples 12-13; format: physicochemical; details: for RRI (mm): single devices; for determined RRI: reservoir 20 uL
Text: For the analysis of data up to 130 days, the first data point is excluded from the fit because the model assumes the maximum delivery rate occurs at time zero while there is some startup time often associated with measured release profiles. The startup time may be related to the time it takes to displace all of the air in the frit. Use of different techniques to displace the air in the frit may reduce the startup time.

[3] = RRI for Avastin of porous frits characterised by gas flow, Example 17C (Table 7); format: physicochemical
Text: The flow through the porous structure can be measured with a decay time of the gas pressure, for example with the flow rate across the porous structure with a pressure drop across the porous frit structure, as described herein. The flow rate and RRI can be determined based on the media grade of the material, for example as commercially available media grade material available from Mott Corp. The therapeutic agent can be measured through the porous structure, or a similar test molecule. […] Based on the teachings described herein, a person of ordinary skill in the art can conduct experiments to determine empirically the correspondence of flow rate with a gas to the release rate of the therapeutic agent.

[4] = Measured release of Avastin through porous frit structures, Examples 12-13; format: physicochemical
[5] = Measured release of Lucentis through porous frit structures, Example 15B; format: physicochemical; details: 10 mg/mL Lucentis, 30 uL, 37 C
Text: All porous frit structures are 316L SS, Mott Corporation.
The diameter ranged from 0.031″ to 0.038″, and the length ranged from 0.029 to 0.049. The media grade ranged from 0.1 to 0.3, and the RRI ranged from 0.014 to 0.090.
Although some of the measurements were excluded, this exclusion is appropriate and associated with in vitro testing conditions that differ substantially from the in vivo model. Five devices were excluded due to bubble growth (10%), and four were excluded due to receiver volume issues at one timepoint for that device (8%). The latter can be an experimental error associated with the volume of the receiver below the assumed value due to evaporation from inadequately sealed vials or due to pipetting error. In some instances the in vitro experimental test apparatus can be sensitive to bubble formation that may differ substantially from the in vivo model as the living eye can resorb oxygen from the therapeutic devices. Bubbles can form as receiver fluid is heated to 37° C. and gas concentrations are greater than their solubilities at 37° C. To minimize the occurrence of bubble formation, receiver solutions were degassed before insertion of the devices.

[6] = test system: size of the lesion / retinal thickness in wet AMD (OCT); format: in vivo, human; details: for Treatment Effect Observed?: OCT decrease in size of the lesion
Text: OCT (Optical Coherence Tomography) imaging was used to assess the condition of the region of the macula at the back surface of the treated eye. The OCT technique relies on the measurement of certain properties of light (e.g. echo time, intensity of reflection) that has been directed at the area of study and can measure very small amounts of reflected light. Because these cellular features are essentially transparent it is possible to use OCT methodology to generate three dimensional representations of the area.
The regions of interest were analyzed with a two dimensional representation of the cross section of the retinal wall at one longitudinal scan location of the OCT image. In these “OCT scan” images is it possible to interrogate very local areas of interest more specifically. The OCT scans were carefully selected to directly compare the thickness and anatomical structure of specific sites within a lesion, pre and post treatment, for the purpose of assessing the effect of injected drug including a reduction in sub-retinal fluid.
The OCT images were measured the day after injection and at 2-3 days post injection. […]

[7] = Measured release of ranibizumab 40 and 100 mg/mL from devices with porous titanium frit, device half life 100 days, Example A; format: physicochemical; details: for RRI (mm), Mean: 25 uL device, titanium frit about 0.04 in thick, OD about 0.03 in; for 40 mg/mL Rate, Average / 100 mg/mL Rate, Average: devices with 100 day half life, unit not given
Text: No. 2010/0015157, entitled “Antibody Formulations”, the full disclosure of which is incorporated herein by reference.
Devices were fabricated using the following method. A vessel was made from two subassemblies and a porous frit structure as described herein. […] The intended RRI was about 0.02 based on gas flow measurements and manufacturing as described herein. The implantable devices were manufactured in accordance with the teachings as described herein.
Devices were filled with formulation using a 33 G needle (TSK) and a standard tuberculin 1-cc syringe (BD). Excess liquid that had exited the porous sintered frit structure during filling was removed by use of a lab tissue and submerging in phosphate buffered saline (PBS, Sigma) and 0.02% sodium azide as a preservative. Each device was suspended in the center of a 1.5 mL microcentrifuge tube by use of a fixture. The tube was filled with 0.5 mL receiver fluid; i.e., PBS that had been degassed to minimize bubble formation. At selected times, the device was removed from the receiver fluid and placed in a new tube containing fresh receiver fluid. […] For the later time points, the sample concentrations were higher and concentration was determined by UV (Perkin Elmer Lambda 35). Drug release rates were calculated from measured concentration, the volume of the receiver fluid and the duration of the collection interval. Drug release rate profiles were plotted at the average elapsed time for each collection interval. RRI was determined via a least squares fit to the model.
Each formulation was filled into ten devices. Some devices were stopped at 3 and 4 months (n=3 each), leaving four that underwent drug release testing for 180 days.

[8] = Measured release of ranibizumab 100 mg/mL from devices with porous titanium frit, device half life 250 days, Example B; format: physicochemical; details: for 100 mg/mL Rate, Average: devices with 250 day half life, n = 5
Protocol: The intended RRI was about 0.008 based on gas flow measurements and manufacturing as described herein. The therapeutic device reservoir volume was about 25 uL.
The formulation was filled into five devices and all underwent drug release testing for 180 days.

[9] = Measured release of ranibizumab 40 and 100 mg/mL from a population of devices, Example C; format: physicochemical; details: at 15 weeks, 25 uL, RRI 0.02
Protocol: Therapeutic devices having stainless steel porous frit structures and formulations were prepared in accordance with Examples A and B. The devices had volumes of 25 uL and an RRI of 0.02.
Pressure decay tests of the assembled porous frit structures were conducted as described herein.
Eighteen devices were injected with the 100 mg/mL formulation and 18 devices were injected with the 40 mg/mL formulation. However, measurements of some devices were stopped for other assays every 4 months so only 6 devices for each formulation have release data through 180 days. The rate of release was measured for 16 weeks, and the amount release after each 2 week interval determined. […] The data indicates a measured rate of 3.5 and 8.1 ug/day at 15 weeks, for the 40 and 100 mg/mL formulation injections, respectively.

[10] = cited from earlier work; for half-life in the vitreous: rabbit and monkey
[11] = human eye; cited from earlier work
[12] = test system: laser photocoagulation treatment-induced Grade IV choroidal neovascularization (CNV) lesions; details: intravitreal injection at all doses tested, cynomolgus monkeys; Z. Yao et al., ARVO 2009; cited from earlier work
[13] = amino acid side chain; cited from earlier work
[14] = Solubility of triamcinolone acetonide; details: suspension, in the buffer at 37° C. when implanted
[15] = Frit #3 (0.038 x 0.029 in), reservoir 37 uL, up to 130 days

Compound: bevacizumab [Avastin]
Osm [1]: 0.182 M
RRI (mm), Mean ([2]; Frit #2 (0.031 x 0.049 in), reservoir 37 uL, up to 130 days): 0.024 mm
RRI (mm), Mean for SS < 2 ([2]; Frit #2, reservoir 37 uL, up to 130 days): 0.014 mm
RRI (mm) [2, 15]: 0.031 mm and 0.030 mm and 0.029 mm and 0.034 mm and 0.044 mm and 0.045 mm
RRI (mm), Mean for SS < 2 ([2]; Frit #3, reservoir 37 uL, up to 130 days): 0.030 mm
determined RRI ([2]; Frit #5 (0.038 x 0.029 in, media grade 0.1 um), 25 mg/mL Avastin, 37 C, FIG. 24A): 0.03
determined RRI ([2]; Frit #6 (0.038 x 0.029 in, media grade 0.2 um), 25 mg/mL Avastin, 37 C, FIG. 23A): 0.05 mm
RRI (mm) ([2]; Table 5A: 16 uL reservoir, 25 mg/mL Avastin, Frit #2 (0.031 x 0.049 in, media grade 0.2 um, 316L SS), 37 C): 0.018 mm and 0.022 mm
RRI (mm) ([2]; Table 5A: 33 uL reservoir, 25 mg/mL Avastin, Frit #2 (0.031 x 0.049 in, media grade 0.2 um, 316L SS), 37 C): 0.015 mm and 0.018 mm
RRI ([3]; Table 7: media grade 0.1, O.D. 0.038 in, length 0.029 in): 0.014
RRI ([3]; Table 7: media grade 0.2, O.D. 0.031 in, length 0.049 in): 0.019
RRI ([3]; Table 7: media grade 0.2, O.D. 0.038 in, length 0.029 in): 0.034 and 0.033
RRI (mm), Mean ([4]; Frit #2 (0.031 x 0.049 in), reservoir 37 uL, up to 45 days): 0.02 mm and 0.020 mm
RRI (mm), Mean for SS < 2 ([4]; Frit #2, reservoir 37 uL, up to 45 days): 0.014 mm
RRI (mm), Mean ([4]; Frit #3 (0.038 x 0.029 in), reservoir 37 uL, up to 45 days): 0.034 mm
RRI (mm), Mean [4, 15]: 0.035 mm
RRI (mm) ([4]; Frit #3 (0.038 x 0.029 in, media grade 0.2 um), 25 mg/mL Avastin, reservoir 37 uL, 37 C, up to 45 days, single devices): 0.027 mm and 0.034 mm and 0.033 mm and 0.044 mm and 0.030 mm and 0.043 mm
RRI (mm), Mean for SS < 2 ([4]; Frit #3, reservoir 37 uL, up to 45 days): 0.030 mm
release rate (RRI) ([4]; Frit #5, media grade 0.1, reservoir 20 uL, to about 90 days, FIG. 24A-1): 0.038 mm
RRI ([4]; Frit #6, reservoir 20 uL, to about 90 days, FIG. 23A-1): 0.053 mm

MIC for a sustained release device ([6]; minimum inhibitory concentration in vivo in human patients, indicated by the low dose study): ≤ 1 ug per ml
Compound: ranibizumab [Lucentis]
Osm [1]: 0.289 M
RRI (mm) ([5]; frit 0.031 x 0.049 in, media grade 0.1 um, 2 replicates): 0.014 mm
RRI (mm) ([5]; frit 0.031 x 0.049 in, media grade 0.2 um, 12 replicates): 0.021 mm
RRI (mm) ([5]; frit 0.038 x 0.029 in, media grade 0.1 um, 5 replicates): 0.039 mm
RRI (mm) ([5]; frit 0.038 x 0.029 in, media grade 0.2 um, 14 replicates): 0.061 mm
RRI (mm) ([5]; frit 0.038 x 0.029 in, media grade 0.3 um, 6 replicates): 0.090 mm
Treatment Effect Observed? ([6]; single patient, lowest dose administered 10 μg intravitreal): Yes
Treatment Effect Observed? ([6]; single patients, lowest dose administered 5 μg intravitreal): Yes
Treatment Effect Observed? ([6]; single patients, lowest dose administered 20 μg intravitreal): Yes
RRI (mm), Mean ([7]; 40 mg/mL formulation): 0.02 mm and 0.024 mm
RRI (mm), Mean ([7]; 100 mg/mL formulation): 0.02 mm and 0.021 mm
40 mg/mL Rate, Average ([7]; Day 90, n = 7): 5.52
100 mg/mL Rate, Average ([7]; Day 90, n = 7): 9.51
40 mg/mL Rate, Average ([7]; Day 180, n = 4): 2.42
100 mg/mL Rate, Average ([7]; Day 180, n = 4): 5.13
RRI (mm), Mean ([8]; 100 mg/mL formulation, 25 uL device, titanium frit 0.031 in thick, OD 0.031): 0.008 mm
100 mg/mL Rate, Average ([8]; Day 90): 5.6 µg/day and 5.59 µg/day
100 mg/mL Rate, Average ([8]; Day 180): 4.51 µg/day
measured rate of release ([9]; 40 mg/mL formulation): 3.5 µg/day
measured rate of release ([9]; 100 mg/mL formulation): 8.1 µg/day
Half-life ([10]; half-life measured for the monkey, parameter of Simulations 1-5 (Table 4A)): 63.1 h
half-life in the vitreous [10]: two to four
half-life in the vitreous ([10]; listed as ranibizumab): approximately 3 days
half-life in the vitreous [11]: ~220 h
development of Grade IV CNV lesions [12]: completely inhibited

Compound: N[C@@H](CC(=O)O)C(=O)O [L-Aspartic Acid]
pKa of side chain [13]: 3.8

solubility [14]: approximately 19 ug/mL
Compound: CC1(C)O[C@@H]2C[C@H]3[C@@H]4CCC5=CC(=O)C=C[C@]5(C)[C@@]4(F)[C@@H](O)C[C@]3(C)[C@]2(C(=O)CO)O1 [triamcinolone acetonide]

Compound: N[C@@H](CS)C(=O)O [L-Cysteine]
pKa of side chain [13]: 8.28

Compound: N=C(N)NCCC[C@H](N)C(=O)O [L-Arginine]
pKa of side chain [13]: 12.0
